According to the nanobody polyreactivity screen of Harvey et al. (2022):

Assay: yeast display, Sf9 membrane polyspecificity reagent, FACS + sequencing; frameworks hold sequencing errors
Outline: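 Genes from sorted yeast were amplified by colony PCR, read by MiSeq 2 × 250 sequencing and filtered on CDR length. These cells carried a synthetic nanobody library in Saccharomyces cerevisiae BJ5465 and were sorted by FACS into low and high (top ~1%) gates on anti-HA and streptavidin fluorescence. Polyreactivity is labelled according to the gate of origin.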

Row | Sequence | polyreactivity (PSR sort gate)
1 | QVQLVESGGGLVQAGGSLRLSCAASGSTFRPYAMGWYRQAPGKERELVAAITSTDVNTYYADSVKGRFTISRDNAKNTVYLQMNSLKPEDTAVYYCAAVYLGYYGVSDMEYWGQGTQVTVSS | high polyreactivity
2 | QVQLVESGGGLVQAGGSLRLSCAASGLTFKVYAMGWYRQAPGKERELVAAISWSGGSTYYADSVKGRFTISRDNAKNTVYLQMNSLKPEDTAVYYCAARGYAWYRGNYDYWGQGTQVTVSS | high polyreactivity
3 | QVQLVESGGGLVQAGGSLRLSCAASGSLFEWYAMGWSRQAPGKEREFVADITYNGGSTYYADSVKGRFTISRDNAKNTVYLHMNSLKPEDTAVYYCAADYFVQVPDYYYPSEYGYWGQGTQVTVSS | low polyreactivity
4 | QVQLVESGGGLVQAGGSLRLSCAASGRIFVHYVMGWYRQAPGKERELVAAISRSGGRTYYADSVKGRFTISRDNAKNTVYLQMNSLKPEDTAVYYCNVYHWSRVFAIDYYWGQGTQVTVSS | high polyreactivity
5 | QVQLVESVGGLAQSRGSLRLSCAASGRTFFPNAMGWYRQAPGKERELVAAITNGDSTHYADSVKRRFTISRDNAKNTVYLQMNSLKPEDTADYYCAAEDHYEGYGGYYWGQVTQVTVSS | low polyreactivity
6 | QVQLVESGGGLVQAGGSLRLSCAASGYIFGSYVMGWYRQAPGKERELVAAISRRGGSTYYADSVKGRFTISRDNAKNTVNLQMNSLKPEYTAVYYFSADYGQYAKYDYWGQGTQVTVSS | high polyreactivity
7 | QVQLVESGGGLVQAGGSLRLNCAASGSIFDKNAMGWYRQAPGKERELVAAISRSGGSTYYADSVKGRFTISRDNAKNTVYLQMNSLKPEVTAVYYCNKYTNGRNFDYWGQGTQVTVSS | high polyreactivity
8 | QDQLVESGGGLVQAGGSLRLSCAASGITFYGYAMGWYRQAPGKERELVAAISESGGSTYYADSVKGRFTISRDNAKNTVYLQMNSLKPEDTAVYYCAAQGYSVYCYSNYWGQGTQVTVSS | low polyreactivity
9 | QVQRVESGGGLVQAGCSLRLSCAATGSTFRDYTMGGYRQEPGKERELVADITWRSGRTYYADSVMGRFTISRDYAMNTVYLQMNSLKPEDTAVYYCAAATRVKVNGLYSYYYRYDYWGLGTQVTVSS | high polyreactivity
10 | QVQHVESGGGLFKAGGTLRLSCAASGRTIYPYAMVLYIQAPGKESELVAAIRWSGGSTYYADSVKGRFTISRDNSKNTVYLQMNSLKPVDTAVYYCNADWKSYRGPIVDYWGQGTQVSVSS | low polyreactivity
11 | QVQLVESGGGLVQAGGSLRLSCAASGSIFKKYAMGWYRQAPGKERELFAAITRGTYYADSVKGRFTISRDNAKNTVYFQMNSLKPEDTAVYFCNREYWGRGYYRVRGEYDYWGQGTQVTVSS | low polyreactivity
12 | QVQLVESGGGLVQAGGSLRLSCAASGRILGQYVMGWYRQAPGKERELVASIRSGGVSTYYADSVKGRFTISRDNAKNTVYLQMNSLKPEDTAVYYCATGSPGPRRYKFDYWGQGTQVTVSS | low polyreactivity
13 | QVQLVESRGGSVQAGGSLRLSCAASGNIFYYAMGWYRQAPGKERELVAAISASGGSSYYADSVKGRFTISRDNAKNTVYLQMNSLKPEDTAVYYCKAVFYRGPGAQGDPRRRSDYWGQGTQVTVSS | high polyreactivity
14 | QVQLVESGGGLVQAGGSLRLSCAASGRTFSDNAMGWYRQAPGKERELVAASSRSGGRTYYADSVKGRFTISRDNAKNTVYLQMNSLKPEDTAVYYCAAAPSVSGTRLYEYWGQGTQVTVSS | high polyreactivity
15 | QVQLVESGGGLVQAGGSLRISCAASGITFVYYDMAWYRQAPGKDSELVAAISGGGSTNYADSVKGRFTISRDNAKNTVYLQRKSLKPEDTAVYYCNAELYYGDEGDSWGQGTLVTVSS | low polyreactivity
16 | QVQLVESGGGLVQAGGCLRLSCAASGRISSSYAMGWYRLAAGKERELVAAITSRGGSTYYADSVKGRFTISRDNAKNTVYLQMNSLKPEDTAVYYCNAPGYLTYDHSYDYWGQGTQVTVSS | low polyreactivity
17 | QVQLVESGGGLVQAGGSLRLSCAASGLILPYYTMGWYRQAPGTERELVAAITWGGDSTYYADSVKGRFTISRDNAKNTVYLQMNRLKPEDTAVFYCAAYPQRRFYWQYRYDYWGQGTQVTGSS | high polyreactivity
18 | QVQLVESGGGLVQAGGSLRLSCAASGSTFEDNAMGWYRQAPGKERELVAVITWTGGSTYYADSVKGRFTISRDNAKNTVYLQMNSLKPEDTAGYYCAADGVVPGRFFWPAHAYDYCGQGTQVTVSS | low polyreactivity
19 | QVQLVESGGGLVQAGGSLRLSCAASGYIFGIYAMGWYRQAPGKERELVARINWSGGRTYYADSVKGRFTISRDNAKNTVYLQMNSLKTEDTAVYYCAARSSYRKMDYWGQGTQVTVSS | high polyreactivity
20 | QVQLVESGGGLVQAGGSLRLSCAASGGTFQSNALGWYRQAPAKERELVASITSRGSSTYYADSVKGRFTISRDNAKNTVYLQMNSLKPEDTAVYYCAKGRSWQIYYKGGIKGGYWGQGTQVTVSS | low polyreactivity
21 | QVQLVESGGGLVQAGGILRLSCAASARIFTYKAMGWYRQAPGKERELVAAITNGGSTYYADSVKGRFTISRDNAKNTVYLQMNSMKPEDTAVYYCNRVVYRPRYRYGYWGQGTQVTVSS | high polyreactivity
